From the supplement of paper PMC11246515
± gives the standard deviation of the averaged measurements.

Assay: total protein half-life in vivo (active degradation + dilution); higher = more stable protein
[1] = E. coli NCM3722 delta-clpP delta-lon delta-hslV, growth: N-lim chemostat, doubling time 6 h
[2] = E. coli NCM3722 delta-clpP, growth: N-lim chemostat, doubling time 6 h
[3] = E. coli NCM3722 delta-hslV, growth: N-lim chemostat, doubling time 6 h
[4] = E. coli NCM3722 delta-smpB, growth: N-lim chemostat, doubling time 6 h
[5] = wild type E. coli NCM3722, growth: C-lim chemostat, doubling time 3 h
[6] = wild type E. coli NCM3722, growth: C-lim chemostat, doubling time 6 h
[7] = wild type E. coli NCM3722, growth: C-lim chemostat, doubling time 12 h
[8] = wild type E. coli NCM3722, growth: N-lim chemostat, doubling time 6 h
[9] = wild type E. coli NCM3722, growth: N-lim chemostat, doubling time 12 h
[10] = wild type E. coli NCM3722, growth: P-lim chemostat, doubling time 6 h
[11] = wild type E. coli NCM3722, growth: P-lim chemostat, doubling time 12 h
[12] = E. coli NCM3722 delta-lon, growth: N-lim chemostat, doubling time 6 h

| Sequence | total protein half-life in vivo [1] [h] | total protein half-life in vivo [2] [h] | total protein half-life in vivo [3] [h] | total protein half-life in vivo [4] [h] | total protein half-life in vivo [5] [h] | total protein half-life in vivo [6] [h] | total protein half-life in vivo [7] [h] | total protein half-life in vivo [8] [h] | total protein half-life in vivo [9] [h] | total protein half-life in vivo [10] [h] | total protein half-life in vivo [11] [h] | total protein half-life in vivo [12] [h] |
| --- | --- | --- | --- | --- | --- | --- | --- | --- | --- | --- | --- | --- |
| MNPERSERIEIPVLPLRDVVVYPHMVIPLFVGREKSIRCLEAAMDHDKKIMLVAQKEASTDEPGVNDLFTVGTVASILQMLKLPDGTVKVLVEGLQRARISALSDNGEHFSAKAEYLESPTIDEREQEVLVRTAISQFEGYIKLNKKIPPEVLTSLNSIDDPARLADTIAAHMPLKLADKQSVLEMSDVNERLEYLMAMMESEIDLLQVEKRIRNRVKKQMEKSQREYYLNEQMKAIQKELGEMDDAPDENEALKRKIDAAKMPKEAKEKAEAELQKLKMMSPMSAEATVVRGYIDWMVQVPWNARSKVKKDLRQAQEILDTDHYGLERVKDRILEYLAVQSRVNKIKGPILCLVGPPGVGKTSLGQSIAKATGRKYVRMALGGVRDEAEIRGHRRTYIGSMPGKLIQKMAKVGVKNPLFLLDEIDKMSSDMRGDPASALLEVLDPEQNVAFSDHYLEVDYDLSDVMFVATSNSMNIPAPLLDRMEVIRLSGYTEDEKLNIAKRHLLPKQIERNALKKGELTVDDSAIIGIIRYYTREAGVRGLEREISKLCRKAVKQLLLDKSLKHIEINGDNLHDYLGVQRFDYGRADNENRVGQVTGLAWTEVGGDLLTIETACVPGKGKLTYTGSLGEVMQESIQAALTVVRARAEKLGINPDFYEKRDIHVHVPEGATPKDGPSAGIAMCTALVSCLTGNPVRADVAMTGEITLRGQVLPIGGLKEKLLAAHRGGIKTVLIPFENKRDLEEIPDNVIADLDIHPVKRIEEVLTLALQNEPSGMQVVTAK [P0A9M0] | 3.09 | 6.54 ± 0.34 | 4.728 ± 0.026 | 4.49 ± 0.13 | 2.889 ± 0.0043 | 5.944 ± 0.036 | 11.2 ± 0.36 | 4.74 ± 0.17 | 6.68 ± 0.68 | 5.58 ± 0.2 | 10.7 ± 0.49 | – |
| MNPIVINRLQRKLGYTFNHQELLQQALTHRSASSKHNERLEFLGDSILSYVIANALYHRFPRVDEGDMSRMRATLVRGNTLAELAREFELGECLRLGPGELKSGGFRRESILADTVEALIGGVFLDSDIQTVEKLILNWYQTRLDEISPGDKQKDPKTRLQEYLQGRHLPLPTYLVVQVRGEAHDQEFTIHCQVSGLSEPVVGTGSSRRKAEQAAAEQALKKLELE [P0A7Y0] | 5.33 ± 0.47 | 4.64 ± 0.1 | 5.21 ± 0.87 | 4.72 ± 0.15 | 2.85 ± 0.21 | 5.54 ± 0.24 | 8.37 ± 0.68 | 4.85 ± 0.54 | 7.78 ± 0.17 | 5.51 ± 0.21 | 11.4 ± 0.34 | 5.08 ± 0.24 |
| MNPVDRPLLDIGLTRLEFLRISGKGLAGLTIAPALLSLLGCKQEDIDSGTVGLINTPKGVLVTQRARCTGCHRCEISCTNFNDGSVGTFFSRIKIHRNYFFGDNGVGSGGGLYGDLNYTADTCRQCKEPQCMNVCPIGAITWQQKEGCITVDHKRCIGCSACTTACPWMMATVNTESKKSSKCVLCGECANACPTGALKIIEWKDITV [P0AAL6] | – | – | – | – | – | – | > 16 | – | – | – | – | – |
| MNPVPAQREYFLDSIRAWLMLLGIPFHISLIYSSHTWHVNSAESSLWLTLFNDFIHSFRMQVFFVISGYFSYMLFLRYPLKKWWKVRVERVGIPMLTAIPLLTLPQFIMLQYVKGKAESWPGLSLYDKYNTLAWELISHLWFLLVLVVMTTLCVWIFKRIRNNLENSDKTNKKFSMVKLSVIFLCLGIGYAVIRRTIFIVYPPILSNGMFNFIVMQTLFYLPFFILGALAFIFPHLKALFTTPSRGCTLAAALAFVAYLLNQRYGSGDAWMYETESVITMVLGLWMVNVVFSFGHRLLNFQSARVTYFVNASLFIYLVHHPLTLFFGAYITPHITSNWLGFLCGLIFVVGIAIILYEIHLRIPLLKFLFSGKPVVKRENDKAPAR | > 8 | 5.18 | – | 6.23 | – | – | – | – | 9.69 | 7.05 | > 16 | – |
| MNQFYVHVRLFEDTAEQTKKFEELMLNFLYQKTVKESDDSCCRLIPEGYILKSTMNCQQILDQTFSIANSAGVDANIFVCKFEQSACLLPSASLVGNDFVHYDLTPKPIKLDS | 5.47 ± 0.25 | – | – | – | – | – | – | – | – | – | – | – |
| MNQIFMVIFLVLSGFIVGNVWSDRGWQKKWAERDAAALSQEVNAQFAARIIEQGRTIARDEAVKDAQQKSAEISARAAYLSDSVNQLRAEAKKYAIRLDAAKHTADLAAAVRGKTTKTAEGMLTNMLGDIAAEAQLYAEIADERYIAGVTCQQIYESLRDKKHQM | – | – | – | – | – | – | – | – | – | – | 9.42 | – |
| MNQNLLVTKRDGSTERINLDKIHRVLDWAAEGLHNVSISQVELRSHIQFYDGIKTSDIHETIIKAAADLISRDAPDYQYLAARLAIFHLRKKAYGQFEPPALYDHVVKMVEMGKYDNHLLEDYTEEEFKQMDTFIDHDRDMTFSYAAVKQLEGKYLVQNRVTGEIYESAQFLYILVAACLFSNYPRETRLQYVKRFYDAVSTFKISLPTPIMSGVRTPTRQFSSCVLIECGDSLDSINATSSAIVKYVSQRAGIGINAGRIRALGSPIRGGEAFHTGCIPFYKHFQTAVKSCSQGGVRGGAATLFYPMWHLEVESLLVLKNNRGVEGNRVRHMDYGVQINKLMYTRLLKGEDITLFSPSDVPGLYDAFFADQEEFERLYTKYEKDDSIRKQRVKAVELFSLMMQERASTGRIYIQNVDHCNTHSPFDPAIAPVRQSNLCLEIALPTKPLNDVNDENGEIALCTLSAFNLGAINNLDELEELAILAVRALDALLDYQDYPIPAAKRGAMGRRTLGIGVINFAYYLAKHGKRYSDGSANNLTHKTFEAIQYYLLKASNELAKEQGACPWFNETTYAKGILPIDTYKKDLDTIANEPLHYDWEALRESIKTHGLRNSTLSALMPSETSSQISNATNGIEPPRGYVSIKASKDGILRQVVPDYEHLHDAYELLWEMPGNDGYLQLVGIMQKFIDQSISANTNYDPSRFPSGKVPMQQLLKDLLTAYKFGVKTLYYQNTRDGAEDAQDDLVPSIQDDGCESGACKI | 4.05 ± 0.63 | 3.93 ± 0.074 | 4.03 ± 0.099 | 3.67 ± 0.52 | 3.07 ± 0.15 | 4.91 ± 0.43 | 9.24 ± 1.7 | 3.85 ± 0.23 | 5.89 ± 0.22 | 5.93 ± 0.08 | 11.1 ± 0.48 | 4.24 ± 0.14 |
| MNQPLLSVNNLTHLYAPGKGFSDVSFDLWPGEVLGIVGESGSGKTTLLKSISARLTPQQGEIHYENRSLYAMSEADRRRLLRTEWGVVHQHPLDGLRRQVSAGGNIGERLMATGARHYGDIRATAQKWLEEVEIPANRIDDLPTTFSGGMQQRLQIARNLVTHPKLVFMDEPTGGLDVSVQARLLDLLRGLVVELNLAVVIVTHDLGVARLLADRLLVMKQGQVVESGLTDRVLDDPHHPYTQLLVSSVLQN | – | – | – | – | – | 4.8 | – | – | – | 0.314 | 1.09 ± 0.26 | – |
| MNQQDIEQVVKAVLLKMQSSDTPSAAVHEMGVFASLDDAVAAAKVAQQGLKSVAMRQLAIAAIREAGEKHARDLAELAVSETGMGRVEDKFAKNVAQARGTPGVECLSPQVLTGDNGLTLIENAPWGVVASVTPSTNPAATVINNAISLIAAGNSVIFAPHPAAKKVSQRAITLLNQAIVAAGGPENLLVTVANPDIETAQRLFKFPGIGLLVVTGGEAVVEAARKHTNKRLIAAGAGNPPVVVDETADLARAAQSIVKGASFDNNIICADEKVLIVVDSVADELMRLMEGQHAVKLTAEQAQQLQPVLLKNIDERGKGTVSRDWVGRDAGKIAAAIGLKVPQETRLLFVETTAEHPFAVTELMMPVLPVVRVANVADAIALAVKLEGGCHHTAAMHSRNIENMNQMANAIDTSIFVKNGPCIAGLGLGGEGWTTMTITTPTGEGVTSARTFVRLRRCVLVDAFRIV | 5.64 ± 1.3 | – | – | – | – | – | – | – | – | – | – | – |
